These results are taken from PMC2119541.

Some targets named below: collagen type III (UniProt P02461); collagen type IV (UniProt P02462); collagen type IX (UniProt P20849); collagen type V (UniProt P20908).
Test in all cases: radioligand binding
The target of test [1] is laminin and collagen type IV (isotonic conditions with Ca2+).
The target in test [2] is Englebreth-Holm sarcoma laminin (UniProt P19137).

“And” between values parts separate entries of the source, which are not always exact repeats. Equal values may be shown once. Some results are limits rather than exact numbers.

UniProt P02461, sequence (P02461 24-1221): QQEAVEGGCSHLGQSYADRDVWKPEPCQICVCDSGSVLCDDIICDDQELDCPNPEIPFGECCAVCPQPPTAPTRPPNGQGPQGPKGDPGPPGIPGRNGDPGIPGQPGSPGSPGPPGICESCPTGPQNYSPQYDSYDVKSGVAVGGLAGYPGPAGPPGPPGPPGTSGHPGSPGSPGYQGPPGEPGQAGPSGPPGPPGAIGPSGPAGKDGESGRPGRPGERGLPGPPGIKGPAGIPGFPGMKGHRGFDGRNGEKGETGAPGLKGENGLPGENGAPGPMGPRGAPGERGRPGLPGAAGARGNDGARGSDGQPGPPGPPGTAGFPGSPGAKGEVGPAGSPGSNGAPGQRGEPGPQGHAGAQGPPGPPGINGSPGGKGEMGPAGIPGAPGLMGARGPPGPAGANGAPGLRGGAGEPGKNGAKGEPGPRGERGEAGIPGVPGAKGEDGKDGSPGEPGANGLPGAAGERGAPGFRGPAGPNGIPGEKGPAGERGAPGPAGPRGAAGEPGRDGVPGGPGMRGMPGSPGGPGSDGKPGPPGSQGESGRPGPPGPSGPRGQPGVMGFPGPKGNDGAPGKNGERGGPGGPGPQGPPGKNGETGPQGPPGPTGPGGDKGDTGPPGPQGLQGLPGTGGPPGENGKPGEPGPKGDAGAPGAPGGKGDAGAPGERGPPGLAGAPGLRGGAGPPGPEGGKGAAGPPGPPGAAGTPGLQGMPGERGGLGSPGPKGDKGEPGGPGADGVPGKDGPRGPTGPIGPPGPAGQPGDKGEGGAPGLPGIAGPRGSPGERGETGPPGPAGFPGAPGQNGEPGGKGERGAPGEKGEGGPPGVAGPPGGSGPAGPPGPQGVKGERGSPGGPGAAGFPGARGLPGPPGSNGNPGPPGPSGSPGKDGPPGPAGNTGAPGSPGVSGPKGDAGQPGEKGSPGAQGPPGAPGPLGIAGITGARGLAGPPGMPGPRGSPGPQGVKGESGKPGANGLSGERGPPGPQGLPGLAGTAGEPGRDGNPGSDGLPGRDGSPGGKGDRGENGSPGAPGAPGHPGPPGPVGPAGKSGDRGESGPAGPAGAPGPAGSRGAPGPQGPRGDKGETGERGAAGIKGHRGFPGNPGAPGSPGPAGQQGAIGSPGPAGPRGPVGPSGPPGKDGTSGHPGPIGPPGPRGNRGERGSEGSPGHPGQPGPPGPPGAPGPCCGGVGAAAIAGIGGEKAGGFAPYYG
UniProt P20908, sequence (P20908 38-1605, chain 1 of 2): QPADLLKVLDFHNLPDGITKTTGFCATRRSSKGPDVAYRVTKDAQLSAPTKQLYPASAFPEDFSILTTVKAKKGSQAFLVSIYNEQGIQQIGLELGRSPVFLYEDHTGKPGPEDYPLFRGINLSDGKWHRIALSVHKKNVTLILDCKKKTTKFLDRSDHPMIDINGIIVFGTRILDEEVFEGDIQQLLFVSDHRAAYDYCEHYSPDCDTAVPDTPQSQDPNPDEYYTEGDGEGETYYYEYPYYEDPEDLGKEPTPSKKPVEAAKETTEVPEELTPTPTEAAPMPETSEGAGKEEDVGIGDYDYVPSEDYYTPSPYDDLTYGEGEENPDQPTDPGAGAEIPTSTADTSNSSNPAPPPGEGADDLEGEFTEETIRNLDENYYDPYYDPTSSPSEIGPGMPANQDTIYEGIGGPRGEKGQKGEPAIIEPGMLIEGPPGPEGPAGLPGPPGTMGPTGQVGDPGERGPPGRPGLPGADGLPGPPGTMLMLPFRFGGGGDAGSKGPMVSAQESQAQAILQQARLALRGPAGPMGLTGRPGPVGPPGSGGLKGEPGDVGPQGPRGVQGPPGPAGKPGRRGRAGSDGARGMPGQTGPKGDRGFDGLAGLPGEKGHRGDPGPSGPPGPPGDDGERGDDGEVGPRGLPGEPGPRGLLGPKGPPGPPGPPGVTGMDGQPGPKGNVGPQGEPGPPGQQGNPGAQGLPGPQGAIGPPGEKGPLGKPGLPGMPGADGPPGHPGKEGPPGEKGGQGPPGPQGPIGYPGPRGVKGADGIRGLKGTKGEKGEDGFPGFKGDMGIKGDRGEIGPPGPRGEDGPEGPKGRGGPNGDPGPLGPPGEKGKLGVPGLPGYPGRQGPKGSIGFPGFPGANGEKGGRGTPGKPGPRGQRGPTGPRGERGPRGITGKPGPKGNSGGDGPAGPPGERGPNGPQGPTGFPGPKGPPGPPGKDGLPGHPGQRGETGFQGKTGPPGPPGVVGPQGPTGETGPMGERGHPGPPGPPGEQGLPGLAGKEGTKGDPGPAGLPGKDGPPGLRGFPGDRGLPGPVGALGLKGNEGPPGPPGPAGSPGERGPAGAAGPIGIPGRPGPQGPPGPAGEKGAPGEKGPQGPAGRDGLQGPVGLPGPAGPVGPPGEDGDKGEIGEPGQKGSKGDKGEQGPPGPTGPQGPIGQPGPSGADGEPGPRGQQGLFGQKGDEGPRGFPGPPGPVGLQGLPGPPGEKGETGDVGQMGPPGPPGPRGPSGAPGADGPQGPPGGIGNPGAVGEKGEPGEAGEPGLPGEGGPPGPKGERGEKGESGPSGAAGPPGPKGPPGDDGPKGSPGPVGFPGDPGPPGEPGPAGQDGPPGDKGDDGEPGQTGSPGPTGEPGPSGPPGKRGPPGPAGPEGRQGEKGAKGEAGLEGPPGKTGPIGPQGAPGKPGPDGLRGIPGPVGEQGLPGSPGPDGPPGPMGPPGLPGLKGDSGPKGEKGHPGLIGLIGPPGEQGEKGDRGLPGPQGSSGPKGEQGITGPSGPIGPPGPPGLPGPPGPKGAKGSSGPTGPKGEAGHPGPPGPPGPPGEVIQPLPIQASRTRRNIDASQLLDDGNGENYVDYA
UniProt P20908, sequence (P05997 27-1229, chain 2 of 2, further chain): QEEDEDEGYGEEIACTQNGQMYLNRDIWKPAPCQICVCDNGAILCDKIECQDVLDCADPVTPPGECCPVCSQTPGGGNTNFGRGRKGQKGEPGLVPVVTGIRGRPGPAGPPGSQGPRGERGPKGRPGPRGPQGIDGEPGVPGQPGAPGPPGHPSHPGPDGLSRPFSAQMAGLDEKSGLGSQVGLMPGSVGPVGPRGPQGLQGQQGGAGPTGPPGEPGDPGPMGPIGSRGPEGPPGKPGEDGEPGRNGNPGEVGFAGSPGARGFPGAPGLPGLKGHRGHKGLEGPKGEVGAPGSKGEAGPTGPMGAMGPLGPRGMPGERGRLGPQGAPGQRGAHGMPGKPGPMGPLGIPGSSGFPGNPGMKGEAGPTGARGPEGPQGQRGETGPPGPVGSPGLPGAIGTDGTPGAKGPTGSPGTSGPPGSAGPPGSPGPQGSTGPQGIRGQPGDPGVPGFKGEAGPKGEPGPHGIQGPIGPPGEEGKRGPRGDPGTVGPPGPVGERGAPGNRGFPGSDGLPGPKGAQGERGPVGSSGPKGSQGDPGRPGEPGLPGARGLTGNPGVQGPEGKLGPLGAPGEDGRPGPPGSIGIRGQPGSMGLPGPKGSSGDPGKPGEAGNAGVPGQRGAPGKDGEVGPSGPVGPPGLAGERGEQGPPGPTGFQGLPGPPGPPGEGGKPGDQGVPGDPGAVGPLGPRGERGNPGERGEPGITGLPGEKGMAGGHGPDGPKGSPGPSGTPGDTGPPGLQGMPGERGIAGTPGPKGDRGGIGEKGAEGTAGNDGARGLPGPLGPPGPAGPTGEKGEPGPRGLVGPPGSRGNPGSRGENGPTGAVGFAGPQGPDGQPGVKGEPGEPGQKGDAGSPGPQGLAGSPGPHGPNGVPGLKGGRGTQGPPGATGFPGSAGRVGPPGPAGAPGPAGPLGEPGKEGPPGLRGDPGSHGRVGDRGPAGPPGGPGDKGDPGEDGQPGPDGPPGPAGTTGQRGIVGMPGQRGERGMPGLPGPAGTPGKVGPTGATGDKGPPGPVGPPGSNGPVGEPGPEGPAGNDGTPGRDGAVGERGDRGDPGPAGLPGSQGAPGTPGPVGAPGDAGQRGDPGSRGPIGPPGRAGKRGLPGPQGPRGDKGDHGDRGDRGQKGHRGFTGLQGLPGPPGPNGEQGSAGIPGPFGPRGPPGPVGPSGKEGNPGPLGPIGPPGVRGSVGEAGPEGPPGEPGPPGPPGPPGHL

Consider astrochondrin (natural protein), for which the fold binding over binding to BSA with collagen type III is 10 fold; with collagen type IV, under 7 fold; in the test with collagen type IX it was under 7 fold; in test [1] it was 5 fold and 7 fold; in test [2], 3.5 fold; with collagen type V, 10 fold. Also, the percent of the added astrochondrin bound in the test with collagen type III and with collagen type V was under 40% each time. Besides, the percent of the total input bound was under 80% with collagen type III; 30% with collagen type IV; 30% with collagen type IX; 15% in test [2]; under 80% with collagen type V. Moreover, the percent of the total input bound at 15 mM NaCl in the test with collagen type III and with collagen type V was 30% throughout.
